Test results reported in doi:10.1101/2024.07.01.601590.

Biological target: Fluorescently labelled Asgard ESCRT-IIIB (Heimdallarchaeota archaeon AB_125), full length (Heimdallarchaeota archaeon AB_125)
Test: TIRF microscopy on supported lipid bilayers

Substance: Fluorescently labelled Asgard ESCRT-IIIA (Heimdallarchaeota archaeon AB_125), full length (natural protein)
- time to reach plateau: 160 s

Substance: Fluorescently labelled Asgard ESCRT-IIIB (Heimdallarchaeota archaeon AB_125), full length (natural protein)
- time to reach plateau: > 1000 s
